{"source": "patent US20190382463A1", "target": "human type 1 insulin-like growth factor receptor (human) (UniProt P08069)", "test": "competitive displacement assay, plate capture of solubilized receptor (tracer for IGF-1R not stated)"}
{"substance": "KP-insulin ([Lys^B28, Pro^B29]-insulin, insulin Lispro) (ligand; other documents disagree on this pair)", "values": [{"measurement": "Kd", "value": 5, "unit": "nM"}]}
